In paper PMC9784018, “Rational Strategy for Designing Peptidomimetic Small Molecules Based on Cyclic Peptides Targeting Protein–Protein Interaction between CTLA-4 and B7-1” (Pharmaceuticals, 2022):
Positions of bridges follow the written chain, without caps; N, C: chain ends. MBP = not defined here

Biological target: T1, CTLA-4 (Homo sapiens, UniProt P16410)
T1 sequence (P16410 36-223): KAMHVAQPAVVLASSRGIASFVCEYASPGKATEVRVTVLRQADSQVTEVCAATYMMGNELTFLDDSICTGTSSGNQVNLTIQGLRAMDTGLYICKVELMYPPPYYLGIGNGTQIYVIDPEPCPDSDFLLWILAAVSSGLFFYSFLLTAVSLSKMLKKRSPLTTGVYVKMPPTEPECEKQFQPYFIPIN
Experiment: E. coli lysate ELISA of MBP–peptide fusion proteins
Format: binding
Conditions: alanine mutants of C4m-310044 as MBP–peptide–His-tag fusion protein, compared with C4m-310044
From the text: We generated 14 alanine mutants as an MBP–peptide–His-tag fusion protein (Supplementary Figure S1A), and systematically investigated the effects of alanine substitution by lysate ELISA (Supplementary Figure S1B). […] These eight residues were regarded as important for the interaction between C4m-310044 peptide and CTLA-4. Of the eight residues, six (H2, P3, L5, S9, H11, and F12) were highly conserved even after affinity maturation of C4-302 (Figure 4). These six amino acids were essential residues for binding with CTLA-4. […] Neither of these two residues is involved in binding, but they seem to contribute to affinity. […]
(B) 14 variants shown in (A) were expressed as the MBP-peptide fusion protein. The binding activity of each on CTLA-4 was evaluated using lysate ELISA. The BL21(DE3) E. coli cells transformed with each alanine scanning mutant were grown in 100 μL of 2xYT/50 μg/mL ampicillin at 37 °C until OD600 of 0.5–0.8 was reached. After IPTG (0.5 mM) was added, the broth was incubated at 25 °C, with shaking overnight. The cell broth was lysed using lysis buffer (5 mg/mL lysozyme (FUJIFILM Wako) in PBS, 50% BugBuster ® (v/v) (Merck Millipore) at RT for 2 h, with shaking. The lysate was blocked with TBS/0.05% Tween-20/12.5% skim milk by incubating at RT for 0.5 h, shaking, then added to CTLA-4-immobilized wells on 384-plate and incubated at RT for 1.5 h. After washing and incubation with anti-FLAG M2 ®-peroxidase antibody (1:10,000; Sigma Aldrich) at RT for 1 h, the absorbance at 450 nm/ 650 nm was read with a microplate reader through the reaction with 1x TMB substrate solution and 2N

Substance	absorbance in lysate ELISA
L5A: alanine mutant of C4m-310044 as MBP–peptide–His-tag fusion protein ({MBP}-CLHPFAPIVSHHFCGR-{His‑tag}; disulfide 1-14 (inferred); reading uncertain)	marked decrease in absorbance
H2A: alanine mutant of C4m-310044 as MBP–peptide–His-tag fusion protein ({MBP}-CLAPFLPIVSHHFCGR-{His‑tag}; disulfide 1-14 (inferred); reading uncertain)	marked decrease in absorbance
F4A: alanine mutant of C4m-310044 as MBP–peptide–His-tag fusion protein ({MBP}-CLHPALPIVSHHFCGR-{His‑tag}; disulfide 1-14 (inferred); reading uncertain)	same level of absorbance with C4m-310044
H11A: alanine mutant of C4m-310044 as MBP–peptide–His-tag fusion protein ({MBP}-CLHPFLPIVSHAFCGR-{His‑tag}; disulfide 1-14 (inferred); reading uncertain)	marked decrease in absorbance
G(+1)A: alanine mutant of C4m-310044 as MBP–peptide–His-tag fusion protein ({MBP}-CLHPFLPIVSHHFCAR-{His‑tag}; disulfide 1-14 (inferred); reading uncertain)	same level of absorbance with C4m-310044
S9A: alanine mutant of C4m-310044 as MBP–peptide–His-tag fusion protein ({MBP}-CLHPFLPIVAHHFCGR-{His‑tag}; disulfide 1-14 (inferred); reading uncertain)	marked decrease in absorbance
P6A: alanine mutant of C4m-310044 as MBP–peptide–His-tag fusion protein ({MBP}-CLHPFLAIVSHHFCGR-{His‑tag}; disulfide 1-14 (inferred); reading uncertain)	marked decrease in absorbance
H10A: alanine mutant of C4m-310044 as MBP–peptide–His-tag fusion protein ({MBP}-CLHPFLPIVSAHFCGR-{His‑tag}; disulfide 1-14 (inferred); reading uncertain)	same level of absorbance with C4m-310044

Other lines, results leading:

absorbance in lysate ELISA	Substance
marked decrease in absorbance	F12A: alanine mutant of C4m-310044 as MBP–peptide–His-tag fusion protein ({MBP}-CLHPFLPIVSHHACGR-{His‑tag}; disulfide 1-14 (inferred); reading uncertain)
same level of absorbance with C4m-310044	R(+2)A: alanine mutant of C4m-310044 as MBP–peptide–His-tag fusion protein ({MBP}-CLHPFLPIVSHHFCGA-{His‑tag}; disulfide 1-14 (inferred); reading uncertain)
marked decrease in absorbance	P3A: alanine mutant of C4m-310044 as MBP–peptide–His-tag fusion protein ({MBP}-CLHAFLPIVSHHFCGR-{His‑tag}; disulfide 1-14 (inferred); reading uncertain)
same level of absorbance with C4m-310044	V8A: alanine mutant of C4m-310044 as MBP–peptide–His-tag fusion protein ({MBP}-CLHPFLPIASHHFCGR-{His‑tag}; disulfide 1-14 (inferred); reading uncertain)
marked decrease in absorbance	I7A: alanine mutant of C4m-310044 as MBP–peptide–His-tag fusion protein ({MBP}-CLHPFLPAVSHHFCGR-{His‑tag}; disulfide 1-14 (inferred); reading uncertain)
same level of absorbance with C4m-310044	L1A: alanine mutant of C4m-310044 as MBP–peptide–His-tag fusion protein ({MBP}-CAHPFLPIVSHHFCGR-{His‑tag}; disulfide 1-14 (inferred); reading uncertain)
